In US20240033359A1 (Takeda / Millennium, published 2024):

Columns and labels:
[1] = target: T1, human guanylyl cyclase C (GCC), as used in the Octet binding assay (human, UniProt P25092 24-430, limits assumed); test: Octet BLI, 1:1 model
T1 construct: also called STAR; GUC2C
Method: Single domain heavy chain antibodies (VH) were generated that specifically target human GCC (e.g., anti-GCC binders provided in Tables 1-3). […] Binding kinetics were determined using an Octet binding assay. These were measured in real-time bio-layer interferometer based biosensor Octet (ForteBio). All the binding studies were performed in HBS-ET Octet kinetics buffer. Biosensors were always washed in Octet kinetics buffer in between different steps. A seven point, two-fold dilution series of each VH was made. The contact time for each of the association steps was 300 seconds and the dissociation step was varied between 400-600 seconds. Kinetic association (ka) and dissociation (kd) rate constants were determined by processing and fitting the data to a 1:1 binding model using ForteBio Analysis software.

[2] = target: T2, GCC on CT26 cells; test: flow cytometry on CT26 cells, dose response
T2 construct: whole, on cells; That the target is GCC is inferred from this context
Method: Binding of single domain antibodies to CT26 cells was measured using flow cytometry. CT26 cells were incubated with serially diluted VH and fluorescence was measured by flow cytometry. Anti-GCC VH antibodies were confirmed for binding to CT26 cells by a FACS dose response assay to obtain an on cell binding EC50 (nM) as shown in Table 4.

T2 sequence (Q3UWA6 whole entry): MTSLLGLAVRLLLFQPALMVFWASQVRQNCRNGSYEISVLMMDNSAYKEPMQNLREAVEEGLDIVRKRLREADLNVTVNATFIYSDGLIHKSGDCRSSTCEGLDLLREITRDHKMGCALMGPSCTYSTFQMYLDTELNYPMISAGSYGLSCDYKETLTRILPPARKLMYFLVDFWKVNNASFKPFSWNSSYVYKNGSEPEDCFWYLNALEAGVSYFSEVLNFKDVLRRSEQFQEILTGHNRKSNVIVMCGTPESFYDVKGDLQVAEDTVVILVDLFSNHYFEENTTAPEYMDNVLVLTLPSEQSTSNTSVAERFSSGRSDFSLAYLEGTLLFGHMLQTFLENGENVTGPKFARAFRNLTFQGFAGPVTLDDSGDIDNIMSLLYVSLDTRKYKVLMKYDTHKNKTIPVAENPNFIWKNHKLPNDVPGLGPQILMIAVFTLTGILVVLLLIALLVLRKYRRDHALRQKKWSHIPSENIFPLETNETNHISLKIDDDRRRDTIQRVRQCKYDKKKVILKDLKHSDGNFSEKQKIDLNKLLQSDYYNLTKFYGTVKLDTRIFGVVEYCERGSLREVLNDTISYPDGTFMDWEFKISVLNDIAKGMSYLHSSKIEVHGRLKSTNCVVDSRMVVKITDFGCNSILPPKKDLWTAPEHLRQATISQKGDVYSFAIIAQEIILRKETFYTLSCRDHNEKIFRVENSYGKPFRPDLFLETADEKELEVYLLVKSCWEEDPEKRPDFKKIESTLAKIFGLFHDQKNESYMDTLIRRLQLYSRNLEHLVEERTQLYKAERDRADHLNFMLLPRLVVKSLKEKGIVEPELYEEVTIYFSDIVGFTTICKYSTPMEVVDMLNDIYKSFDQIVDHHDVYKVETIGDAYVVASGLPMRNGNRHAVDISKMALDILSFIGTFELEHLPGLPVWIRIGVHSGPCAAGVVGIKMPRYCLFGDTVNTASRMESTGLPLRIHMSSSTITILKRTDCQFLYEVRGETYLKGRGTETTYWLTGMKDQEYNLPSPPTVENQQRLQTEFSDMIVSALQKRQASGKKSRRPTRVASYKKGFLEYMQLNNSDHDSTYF
T1 sequence (P25092 24-430 limits assumed): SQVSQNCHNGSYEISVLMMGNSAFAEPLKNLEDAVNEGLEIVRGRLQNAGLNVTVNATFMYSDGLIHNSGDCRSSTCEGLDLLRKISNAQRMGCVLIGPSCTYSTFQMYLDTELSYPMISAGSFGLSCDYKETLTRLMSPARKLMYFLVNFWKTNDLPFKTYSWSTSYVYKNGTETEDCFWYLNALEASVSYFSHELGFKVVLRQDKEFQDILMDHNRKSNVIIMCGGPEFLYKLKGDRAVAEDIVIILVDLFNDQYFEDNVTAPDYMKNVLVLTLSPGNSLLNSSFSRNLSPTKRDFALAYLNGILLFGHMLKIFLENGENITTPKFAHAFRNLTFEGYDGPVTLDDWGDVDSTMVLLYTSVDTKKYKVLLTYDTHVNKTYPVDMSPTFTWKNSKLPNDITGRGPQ

Binder | Kd [1] | koff [1] | EC50 [2]
V51 anti-GCC single domain VH antibody (VHH, Human heavy chain variable single domain antibody (VH only), tested as recombinant purified VH; No tags are stated) VHH: EVQLVESGGGLVQPGGSLRLSCAASGFTFSRYWMTWVRQAPGKGLEWVAKIRHDGGEKYYADSVKGRFTISRDNAKNSLYLQMNSLRAEDTAVYYCTRDYNKDYWGQGTLVTVSS | 9.54 nM | 0.00185 s⁻¹ | 
V36 anti-GCC single domain VH antibody (VHH, Human heavy chain variable single domain antibody (VH only), tested as recombinant purified VH; No tags are stated) VHH: EVQLVESGGGLAQPGGSLRLSCAASGFTFSRYWMTWVRQAPGGRLEWVAKIKYDGSEKYYADSVKGRFTISRDNAKNSLYLQMDSLRAEDTAVYYCTRDYNKDYWGQGTLVTVSS | 105 nM | 0.0035 s⁻¹ | 

Now those with a lower Kd [1], led by results:

Kd [1] | koff [1] | EC50 [2] | Binder
7.71 nM | 0.000719 s⁻¹ | 1.52 nM | V5 anti-GCC single domain VH antibody (VHH, Human heavy chain variable single domain antibody (VH only), tested as recombinant purified VH; No tags are stated) VHH: QVQLVESGGGLVQPGGSLRLSCTASGFTFSRYWMSWVRQAPGKGLEWVAKIRHDGGEKYYVDSVKGRFTISRDNAKNSLYLQMNSLRAEDTAVYYCATDYTRDVWGQGTAVTVSS
1.38 nM | 0.000341 s⁻¹ | 1.01 nM | V48 anti-GCC single domain VH antibody (VHH, Human heavy chain variable single domain antibody (VH only), tested as recombinant purified VH; No tags are stated) VHH: EVQLVESGGGLVQPGGSLRLTCAASGFTFSRYWMTWVRQAPGKGLEWVAKIRHDGGEKYYPDSVKGRFTVSRDNAKNSLYLQMDNLRAEDTAMYYCTRDYNKDLWGQGTLVTVSS
0.329 nM | 0.000208 s⁻¹ | 0.72 nM | V1 anti-GCC single domain VH antibody (VHH, Human heavy chain variable single domain antibody (VH only, no light chain), tested as recombinant purified VH; also called V1 VH) VHH: QVQLQESGPGLVKPSETLSLTCTVSGASISHYYWSWFRQPAGKGLEWIGRIYPSGSTSYNPSLKSRVAMSVDTPKNQFSLNLSSVTAADTAVYYCARDRSTGWSEWNSDLWGRGTLVTVSS
